Results from publication PMC4252516.

Biological target: AbrBC, C-terminal multimerization domain of AbrB from Bacillus subtilis (residues 52-94) (Bacillus subtilis)
Assay: SEC

stoichiometry N: 2
Substance: AbrBC, C-terminal multimerization domain of AbrB from Bacillus subtilis (residues 52-94) (domain or fragment)
